Test results: publication PMC9871958 (Protein & Cell, 2022)

Molecular target: SARS-CoV-2 RBD protein (SARS-CoV-2, UniProt P0DTC2)
Assay: ELISA
Details: both partners purified

Row | Binder | binding result
1 | 1F mutated at R102 (antibody, V domains shown, also called mutated 1F (R102)) VH: EVQLVESGPGLVKPSETLSLTCTVSGGSISSSSYYWGWIRQPPGKGLEWIGSIYYRGSTYYNPSLKSRVTISVDTSKNQFSLKLSSVTAADTAVYYCARHVASAYYYGSGSYRDEGNWFDPWGQGTLVTVSS VL: QSVLTQPPSVSGAPGQRVTISCTGTRSNIGAGHDVHWYQQLPGTAPKLLIYGNNNRPSGVPDRFSGAKSGTSASLAITGLQAEDEADYYCQSYDRTLTSYVFGTGTKVTVL | no binding
2 | 1F mutated at D114 (antibody, V domains shown, also called mutated 1F (D114)) VH: EVQLVESGPGLVKPSETLSLTCTVSGGSISSSSYYWGWIRQPPGKGLEWIGSIYYRGSTYYNPSLKSRVTISVDTSKNQFSLKLSSVTAADTAVYYCARHVRSAYYYGSGSYRAEGNWFDPWGQGTLVTVSS VL: QSVLTQPPSVSGAPGQRVTISCTGTRSNIGAGHDVHWYQQLPGTAPKLLIYGNNNRPSGVPDRFSGAKSGTSASLAITGLQAEDEADYYCQSYDRTLTSYVFGTGTKVTVL | no binding
